Columns and labels:
[1] = target: T1, human ROR1 (human, UniProt Q01973 30-937); experiment: flow cytometry (FACS) on CHO cells stably expressing full-length human ROR1
T1 construct: whole, on cells; also called full-length human ROR1 on CHO cells; ROR1-CHO
Description: (§1) The tetra-specific GNC antibodies listed in TABLEs 3 and 4 were tested for binding to Chinese hamster ovary cells (CHO) cells stably expressing a full-length human ROR1. Antibodies were prepared at 2× final concentration and titrated 1:5 across 3 wells of a 96 well plate in 50 ul of PBS/2% FBS and then 5,000 ROR1-CHO cells in 50 ul PBS/2% FBS were added. This mixture was incubated for 30 minutes on ice, washed once with 200 ul PBS/2% FBS, and then the secondary antibody PE Goat anti-Human IgG Fc at 1:1000 dilution of stock was added, and this mixture was incubated for 30 minutes on ice. Cells were washed 2×200 ul PBS/2% FBS, resuspended in 50 ul PBS/2% FBS and analyzed on a BD LSRFORTESSA and the binding profile is shown in FIG. 4.

[2] = target: T2, human PD-L1 (human, UniProt Q9NZQ7 19-290); experiment: flow cytometry (FACS) on human PDL1 transfected CHO cells
T2 construct: whole, on cells; also called human PDL1 transfected CHO cells

[3] = target: T3, human 4-1BB (human, UniProt Q07011 24-255); experiment: flow cytometry (FACS) on human 41BB transfected CHO cells
T3 construct: whole, on cells; also called human 41BB transfected CHO cells
Description: as §1, with “5. All of the tetra-specific GNC antibodies except for the control SI-27E12 contain a 41BB binding domain, 460C3, 420H5, or 466F6 and bound to 41BB expressing CHO cells with varying intensity.” for “4.”

Measured: binding result

T2 sequence (Q9NZQ7 19-290): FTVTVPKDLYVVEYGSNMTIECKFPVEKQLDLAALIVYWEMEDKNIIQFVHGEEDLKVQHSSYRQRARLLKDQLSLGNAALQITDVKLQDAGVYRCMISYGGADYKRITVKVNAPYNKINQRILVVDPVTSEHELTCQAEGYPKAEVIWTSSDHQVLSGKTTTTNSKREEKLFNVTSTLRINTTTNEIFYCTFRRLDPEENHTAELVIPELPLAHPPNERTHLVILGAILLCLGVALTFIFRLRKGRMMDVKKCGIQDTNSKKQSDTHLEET
T1 sequence (Q01973 30-937): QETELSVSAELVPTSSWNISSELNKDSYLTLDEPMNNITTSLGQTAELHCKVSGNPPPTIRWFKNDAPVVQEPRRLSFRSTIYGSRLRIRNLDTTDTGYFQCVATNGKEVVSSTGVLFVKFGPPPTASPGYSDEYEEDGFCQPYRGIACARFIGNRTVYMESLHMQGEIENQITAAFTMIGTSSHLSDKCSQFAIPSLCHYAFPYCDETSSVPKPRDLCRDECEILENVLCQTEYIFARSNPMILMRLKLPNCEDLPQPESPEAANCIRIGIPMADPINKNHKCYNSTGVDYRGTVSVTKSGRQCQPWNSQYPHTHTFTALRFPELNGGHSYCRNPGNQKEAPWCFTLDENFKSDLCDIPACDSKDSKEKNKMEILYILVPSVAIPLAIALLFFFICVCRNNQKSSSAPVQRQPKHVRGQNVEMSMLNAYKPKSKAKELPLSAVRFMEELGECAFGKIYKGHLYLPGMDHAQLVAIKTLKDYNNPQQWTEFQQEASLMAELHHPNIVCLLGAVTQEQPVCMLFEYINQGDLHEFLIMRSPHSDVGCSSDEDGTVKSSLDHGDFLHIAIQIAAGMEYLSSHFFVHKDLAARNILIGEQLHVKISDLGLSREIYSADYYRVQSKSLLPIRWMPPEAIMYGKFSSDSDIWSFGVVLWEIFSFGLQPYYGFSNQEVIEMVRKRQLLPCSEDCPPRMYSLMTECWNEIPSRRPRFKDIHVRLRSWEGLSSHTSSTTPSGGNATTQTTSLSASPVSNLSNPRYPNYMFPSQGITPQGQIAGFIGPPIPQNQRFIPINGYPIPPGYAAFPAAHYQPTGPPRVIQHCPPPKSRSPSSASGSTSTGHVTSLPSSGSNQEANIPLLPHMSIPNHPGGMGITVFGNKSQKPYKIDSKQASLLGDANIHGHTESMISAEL
T3 sequence (Q07011 24-255): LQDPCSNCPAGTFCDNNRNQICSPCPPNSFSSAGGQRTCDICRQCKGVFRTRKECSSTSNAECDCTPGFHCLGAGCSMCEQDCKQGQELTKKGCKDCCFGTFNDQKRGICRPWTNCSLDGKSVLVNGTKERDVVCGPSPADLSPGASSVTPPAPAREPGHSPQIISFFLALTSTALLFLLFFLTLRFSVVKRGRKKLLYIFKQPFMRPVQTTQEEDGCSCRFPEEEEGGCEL

B1: SI-35E18 (460C3-L1H1-scFv x PL230C6-Fab x 323H7-H4L1-scFv x 284A10-H1L1-scFv) (antibody)
heavy: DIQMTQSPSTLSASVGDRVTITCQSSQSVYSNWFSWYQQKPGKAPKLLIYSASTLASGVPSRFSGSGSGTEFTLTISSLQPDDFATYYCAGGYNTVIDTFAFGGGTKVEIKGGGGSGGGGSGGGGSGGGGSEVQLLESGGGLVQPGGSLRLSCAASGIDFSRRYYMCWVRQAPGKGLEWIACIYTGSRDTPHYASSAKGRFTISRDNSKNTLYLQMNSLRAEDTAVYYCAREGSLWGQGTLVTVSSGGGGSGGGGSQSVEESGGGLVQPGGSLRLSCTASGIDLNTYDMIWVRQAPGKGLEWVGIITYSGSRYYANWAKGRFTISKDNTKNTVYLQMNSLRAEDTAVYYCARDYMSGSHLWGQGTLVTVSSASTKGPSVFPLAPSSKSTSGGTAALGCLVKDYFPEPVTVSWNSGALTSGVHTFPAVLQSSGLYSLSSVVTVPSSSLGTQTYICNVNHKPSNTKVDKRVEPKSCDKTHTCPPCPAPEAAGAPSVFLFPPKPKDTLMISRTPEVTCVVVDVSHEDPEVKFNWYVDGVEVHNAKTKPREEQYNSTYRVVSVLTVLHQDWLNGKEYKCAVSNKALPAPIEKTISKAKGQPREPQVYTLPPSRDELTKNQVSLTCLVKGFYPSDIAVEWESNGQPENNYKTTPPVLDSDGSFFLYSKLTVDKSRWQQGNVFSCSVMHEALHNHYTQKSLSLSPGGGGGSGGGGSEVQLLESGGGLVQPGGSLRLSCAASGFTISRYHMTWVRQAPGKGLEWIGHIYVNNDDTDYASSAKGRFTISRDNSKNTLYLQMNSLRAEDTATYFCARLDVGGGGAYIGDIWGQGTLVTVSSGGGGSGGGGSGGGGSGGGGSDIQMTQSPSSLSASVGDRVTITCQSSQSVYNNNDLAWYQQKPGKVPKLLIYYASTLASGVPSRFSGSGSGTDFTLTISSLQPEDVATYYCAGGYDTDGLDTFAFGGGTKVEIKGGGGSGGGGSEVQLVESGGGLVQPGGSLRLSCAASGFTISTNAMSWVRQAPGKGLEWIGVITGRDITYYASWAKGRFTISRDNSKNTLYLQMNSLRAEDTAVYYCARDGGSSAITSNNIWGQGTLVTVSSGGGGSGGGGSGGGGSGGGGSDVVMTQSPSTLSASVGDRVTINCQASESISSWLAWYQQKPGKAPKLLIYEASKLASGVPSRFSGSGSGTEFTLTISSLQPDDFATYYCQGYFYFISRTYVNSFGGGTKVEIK
light: AYDMTQSPSSVSASVGDRVTIKCQASEDIYSFLAWYQQKPGKAPKLLIHSASSLASGVPSRFSGSGSGTDFTLTISSLQPEDFATYYCQQGYGKNNVDNAFGGGTKVEIKRTVAAPSVFIFPPSDEQLKSGTASVVCLLNNFYPREAKVQWKVDNALQSGNSQESVTEQDSKDSTYSLSSTLTLSKADYEKHKVYACEVTHQGLSSPVTKSFNRGEC
notes: Tetra-specific (4-1BB x PD-L1 x ROR1 x CD3) antibody with human IgG1 null2 Fc; also called tetra-specific GNC antibody
binds: all assays above

B2: SI-35E20 (466F6-L5H2-scFv x PL230C6-Fab x 323H7-H4L1-scFv x 284A10-H1L1-scFv) (antibody)
heavy: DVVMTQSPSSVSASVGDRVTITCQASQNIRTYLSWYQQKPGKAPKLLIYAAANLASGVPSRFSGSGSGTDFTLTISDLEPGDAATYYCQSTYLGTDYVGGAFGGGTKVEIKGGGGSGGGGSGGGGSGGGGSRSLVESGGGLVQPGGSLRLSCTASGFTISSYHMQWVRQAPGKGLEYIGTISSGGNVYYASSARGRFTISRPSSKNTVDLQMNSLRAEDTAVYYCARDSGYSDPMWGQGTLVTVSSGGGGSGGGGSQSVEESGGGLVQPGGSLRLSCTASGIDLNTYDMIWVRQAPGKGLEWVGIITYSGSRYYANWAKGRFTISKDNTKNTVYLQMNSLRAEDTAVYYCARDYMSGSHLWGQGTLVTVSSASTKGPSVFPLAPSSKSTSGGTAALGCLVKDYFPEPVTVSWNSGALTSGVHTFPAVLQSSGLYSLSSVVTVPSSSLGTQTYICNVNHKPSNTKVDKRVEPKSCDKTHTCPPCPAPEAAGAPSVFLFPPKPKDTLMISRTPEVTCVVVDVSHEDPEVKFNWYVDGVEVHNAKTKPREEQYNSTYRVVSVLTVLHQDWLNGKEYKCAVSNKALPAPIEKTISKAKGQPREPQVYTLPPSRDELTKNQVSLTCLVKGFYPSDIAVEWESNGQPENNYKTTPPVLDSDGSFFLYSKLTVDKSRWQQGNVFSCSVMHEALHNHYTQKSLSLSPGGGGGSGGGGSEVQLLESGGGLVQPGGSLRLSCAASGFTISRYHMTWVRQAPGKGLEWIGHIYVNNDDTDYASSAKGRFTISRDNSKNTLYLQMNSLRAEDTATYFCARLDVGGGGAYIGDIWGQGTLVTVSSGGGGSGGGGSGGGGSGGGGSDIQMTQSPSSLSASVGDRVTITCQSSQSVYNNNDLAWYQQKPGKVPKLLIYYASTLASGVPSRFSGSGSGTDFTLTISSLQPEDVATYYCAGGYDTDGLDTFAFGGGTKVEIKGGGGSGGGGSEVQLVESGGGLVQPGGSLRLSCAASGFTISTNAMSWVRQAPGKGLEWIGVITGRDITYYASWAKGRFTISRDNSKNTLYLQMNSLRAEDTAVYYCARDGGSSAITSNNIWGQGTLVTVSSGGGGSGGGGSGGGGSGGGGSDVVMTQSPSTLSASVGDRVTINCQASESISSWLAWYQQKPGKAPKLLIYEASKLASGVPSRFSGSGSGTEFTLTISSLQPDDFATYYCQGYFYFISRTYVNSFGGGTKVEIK
light: B1 light
notes: as for B1
binds: all assays above

Reference: patent US20210024630A1 (SYSTIMMUNE, published 2021)
